Experimental data published in a protein production outcome set (Wang et al. 2014).

Test: label from the status in PepcDB records

Sequence | protein production
MSELILHHYPTSLFAEKARLMLGFKGVNWRSVTIPSIMPKPDLTALTGGYRKTPVLQIGADIYCDTALMARRLEQEKASPAFYPQGQEFAVAGLAAWADSVLFLHAVSLVFQPESMAVRFAKVPPDAAKAFIADRSMLFNGGTASRPPVEQVKHQWPTFMSRLESQLSHGGDFLFGAPSIADFSVAHTLWFLKQTPVTAPFVDDYPSVSVWLDRVLGFGHGSLSDLSSAAAIEIASNATPAPLPDETFIDPNGFKAGDKVAIAAVDYGVEAVEGELMFTGREELILRREDNRAGVVHVHFPRLGFRVEKR | not failed
MACEGAPEVRIGRKPVMNYVLAILTTLMEQGTNQVVVKARGRNINRAVDAVEIVRKRFAKNIEIKDIKIDSQEIEVQTPEGQTRTRRVSSIEICLEKAGESA | not failed
MTTTLTILTPTYNRAYILPKLYASLVEQTNKHFDWMVVDDGSTDNTEQLISEFIADGKINIVYIKQKNGGKHRALNTGAQSINSDYIFIVDSDDYLTNDAIDIILENSHYLKEKNLMGMTLLRGYAPDKVIGEKYPEDFMIKNFNQVRYNMGIKGDKAEVVSTKIFRETPFPEIPGERFMSEGVAWKQLAHKGDSLFINKIVYITEYLEDGLTHSGRLLLIKNPLGAMLNAKLAMTKEFSFKIREKNSLLYIAYGFFAKKKVREIITESGQRKLVRVNLLFGWMI | failed
MTTLTAQQIACVYAWLAQLFSRELDDEQLTQIASAQMAEWFSLLKNEPPLTAAVNELENRIATLTVRDDARLELAADFCGLFLMTDKQAALPYASAYKQDEQEIKRLLVEAGMETSGNFNEPADHLAIYLELLSHLHFSLGEGTVPARRIDSLRQKTLTALWQWLPEFVARCRQYDSFGFYAALSQLLLVLVECDHQNR | failed
MIEIRKASTHDATAIQTLLTQLGYPQSLEFIEKKIRLFESDERQFIFVADIDHKLAGFLSLTMIPQIALEGDFARIAYVCVDQQFRGKRIGQTLVAYAEQIAKSWGCNRMELHSGDHRKQAHEFYLGQNYEDAPKYFRKFL | failed
MKKGLTFSITSAALFFGMNHVASADQIHTVKEDAKLTDIAQTFATTTTEIQNLNHLQNRDYVQVGETIVLPDSDIVEVKDGDTIKAIAERHQMTMNQLYQLNPNLGEVIYPGQLVAVSEKGSAHLNNQLQQIFNSHEAVQPTAQINDDERNKAENNTIRNVRTSGNITPSATQTWQNNDYSASDRQQVSNTTANEQVTSNYQYSPVSHASNGSNYYDWGQCTYYAFDRRQQLGKSVGNLWGNANNWASAAQQSGYQVNNTPEVGAIFQSTAGNYGHVGVVESKNADGSIVVSEMNWQGVGQKSYRTIHNTGQYNYIHLEHHHHHH | failed
MRYLLIILAFWLPLQSHAVEFDENTRFLPLGRAVQVFEDPTGTATIDSVSSPAGAQAFRPAPAGTFNAGYSRSAFWLKVELSYRPADADIHNDWLLELAYPPMDRVDFYAPDANGRPTLTWQTGDMLPFASRQFAQNNYLFQLELPPGQTRTLYVRISSEGSVQAPLNLWSTHAYLEAQPTKIYVFGLIYGVLLGMLVYNLFIYLSVREPDYLYYLLYVAAFGLYQMSINGVAIEYLWPDSPWWANASTPFLMALATLFACQFTRSFLGTVRLGRWLDRSLLTLIGAAVLVMCIALFLSYGPALRAATQLVMAGALTIYLAGIVAVVKGERVGRYFVLAWSVFMIGGLVFGLMLMGYMPNTFLTMYASHIGTLLEMAFLSMALADRINHARYQQEQTLLAYGKDLERLNQQLATSNRLKDEFLATLTHELRTPMNGVIGSLEVMQTLDMDDEVEMYQQTAASSARDMMSMINGILTLTELQAGVLYAECSAFAPVDLVDRLRERFSGAAQSKGLTLTLDLDDKLPPGIRGDAGKLYQCLECLVDNAIKFTRKGAVQVRFSGQPQDLERMYLRVEVMDSGIGFSHLDEALLYQHFLQVDGSMTREYGGLGIGLAICRKLVELQGGELSHRSEPGKGSCFTLSIPMLMAVPGAVRRAPEAKAQWGHVSRS | failed
MALLIITTILWAFSFSLIGEYLAGSVDSYFSVLMRVGLAALVFLPFLRTRGQSPRTIVLYMLVGAMQLGIMYLLAFRAYLYLTVSEFLLFTVFTPLYITLIYDLLSGRKLRWGYLLSAALAVLGAAIIRYDKVSDHFWTGLLLVQLSNLCFAIGMVGYKRLMEVRPMPQHNAFAWFYVGAFIVAVAAWFMLGNAQKLPTTTLQWSVLVWLGVVASGLGYFMWNYGATQVDAGTLGIMNNVHVPAGLLVNLAIWQEQPHWPSFISGALVILASLWVHRRWVAPHSGQTADDRRRGSAQSE | failed
MSLSTAADLLRQGAACSVLYLTSVETESLTGPQAVARASSAALSCSPRPTPAVVHFKVSAQGITLTDNQRKLFFRRHYPVNSITFSSTDPQDRRWTNPDGTTSKIFGFVAKKPGSPWENVCHLFAELDPDQPAGAIVTFITKVMLGQRKEGHHHHHH | not failed
